Patent EP4442322A1
Each block holds one binder with its values, some of them ahead of it.

Target: ASGPR of the murine amino acid sequence (murine)
Assay: cell-based or functional assay

Sequence of ASGPR of the murine amino acid sequence (murine) (P34927 whole entry, chain 1 of 2): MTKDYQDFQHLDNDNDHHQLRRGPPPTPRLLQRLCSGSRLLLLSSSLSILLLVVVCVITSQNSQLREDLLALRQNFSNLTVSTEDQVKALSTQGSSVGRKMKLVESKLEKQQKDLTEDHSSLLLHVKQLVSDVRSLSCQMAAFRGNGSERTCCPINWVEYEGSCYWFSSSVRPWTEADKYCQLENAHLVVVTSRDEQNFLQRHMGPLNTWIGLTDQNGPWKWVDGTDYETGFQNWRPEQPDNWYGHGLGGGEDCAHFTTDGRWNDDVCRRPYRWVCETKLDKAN
Sequence of ASGPR of the murine amino acid sequence (murine) (P24721 whole entry, chain 2 of 2, further chain): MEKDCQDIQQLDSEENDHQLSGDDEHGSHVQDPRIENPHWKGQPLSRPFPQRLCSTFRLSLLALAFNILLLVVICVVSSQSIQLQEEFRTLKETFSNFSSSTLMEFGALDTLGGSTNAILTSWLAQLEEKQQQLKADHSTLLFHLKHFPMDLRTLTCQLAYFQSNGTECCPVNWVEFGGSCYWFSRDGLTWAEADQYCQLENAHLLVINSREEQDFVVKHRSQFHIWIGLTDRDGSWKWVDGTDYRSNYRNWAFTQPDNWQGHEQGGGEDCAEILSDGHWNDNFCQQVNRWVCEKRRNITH

activated cells (GFP), Q2 (Fig. 6E): 3.41%
activated cells (GFP), Q2 and Q3 in total (Fig. 6E): 13.3%
activated cells (GFP), Q3 (Fig. 6E): 9.86%
B1: CAR having the scFv of SEQ ID NO: 24 (C11), murine Ig-construct (mIg) (protein)
chain: QIQLVQSGGGLVQPGGSLRLSCAGSGYTFSDHYMDWVRQAPGKGLEWVGRIRYKANSYSTEYAASVKGRFTISRDDSRNSLFLQMNSLKTEDTAVYYCARIRDRYYFDYWGQGALVTVSSGSASAPKLEEGEFSEARVQSVLTQPPSVSGAPGQRVTISCTGSSSNVGAGYDVHWYQQLPGAAPKLLIYGNSNRPSGVPDRFSGSKSGTSASLAISGLQSEDEADYYCAAWDDSLNGVVFGGGTKLTVLGQPKAAPSVTLFPPSSAAAGSEQKLISEEDLSHHHHHHVPRDGGCKPCICTVPEVSSVFIFPPKPKDVLTITLTPKVTCVVVDISKDDPEVQFSWFVDDVEVHTAQTQPREEQFNSTFRSVSELPIMHQDWLNGKEFKCRVNSAAFPAPIEKTISKTKGRPKAPQVCTIPPPKEQMAKDKVSLTCMITDFFPEDITVEWQWNGQPAENYKNTQPIMDTDGSYFVYSKLNVQKSNWEAGNTFTCSVLHEGLHNHHTEKSLSHSPGVFLACVLGGSFGFLGFLGLCILCCVNSRRNRLLQSDYMNMTPRRPGLTRKPYQPYAPARDFAAYRPLRAKFSRSAETAANLQDPNQLYNELNLGRREEYDVLEKKRARDPEMGGKQQRRRNPQEGVYNALQKDKMAEAYSEIGTKGERRRGKGHDGLYQGLSTATKDTYDALHMQTLAPR

activated cells (GFP), Q2 (Fig. 9E): 3.7%
activated cells (GFP), Q2 and Q3 in total (Fig. 9E): 6.06%
activated cells (GFP), Q3 (Fig. 9E): 2.36%
B2: CAR having the scFv of SEQ ID NO: 26 (C3), murine Ig-construct (mIg) (protein)
chain: VHSQVTLKESGGGLVQPGGSLRLSCAASGFTFSSYAMSWVRQAPGKGLEWVSAISGSGGSTYYADSVKGRFTISRDNSKNTLYLQMNSLRAEDTAVYYCAKDLKQWLEDYWGQGTLVTVSSGSASAPKLEEGEFSEARVDVVMTQSPSTLSASVGDRVTITCRASQSIGPWLAWYQQKPGEAPKLLLYKASILEGGVPSRFSGRGSGTEFTLTISSLQPDDFATYYCQQYNTFGPTFGQGTKLEIKRTVAAPSVFDPVPRDGGCKPCICTVPRDGGCKPCICTVPEVSSVFIFPPKPKDVLTITLTPKVTCVVVDISKDDPEVQFSWFVDDVEVHTAQTQPREEQFNSTFRSVSELPIMHQDWLNGKEFKCRVNSAAFPAPIEKTISKTKGRPKAPQVCTIPPPKEQMAKDKVSLTCMITDFFPEDITVEWQWNGQPAENYKNTQPIMDTDGSYFVYSKLNVQKSNWEAGNTFTCSVLHEGLHNHHTEKSLSHSPGVFLACVLGGSFGFLGFLGLCILCCVNSRRNRLLQSDYMNMTPRRPGLTRKPYQPYAPARDFAAYRPLRAKFSRSAETAANLQDPNQLYNELNLGRREEYDVLEKKRARDPEMGGKQQRRRNPQEGVYNALQKDKMAEAYSEIGTKGERRRGKGHDGLYQGLSTATKDTYDALHMQTLAPR

activated cells (GFP), Q2 (Fig. 6F): 4.04%
activated cells (GFP), Q2 and Q3 in total (Fig. 6F): 9.44%
activated cells (GFP), Q3 (Fig. 6F): 5.4%
B3: CAR having the scFv of SEQ ID NO: 24 (C11), murine CD8 construct (mCD8) (protein)
chain: QIQLVQSGGGLVQPGGSLRLSCAGSGYTFSDHYMDWVRQAPGKGLEWVGRIRYKANSYSTEYAASVKGRFTISRDDSRNSLFLQMNSLKTEDTAVYYCARIRDRYYFDYWGQGALVTVSSGSASAPKLEEGEFSEARVQSVLTQPPSVSGAPGQRVTISCTGSSSNVGAGYDVHWYQQLPGAAPKLLIYGNSNRPSGVPDRFSGSKSGTSASLAISGLQSEDEADYYCAAWDDSLNGVVFGGGTKLTVLGQPKAAPSVTLFPPSSAAAGSEQKLISEEDLSHHHHHHSSVVPVLQKVNSTTTKPVLRTPSPVHPTGTSQPQRPEDCRPRGSVKGTGLDFACDIYIWAPLAGICVALLLSLIITLICYHRWTNSRRNRLLQSDYMNMTPRRPGLTRKPYQPYAPARDFAAYRPRAKFSRSAETAANLQDPNQLYNELNLGRREEYDVLEKKRARDPEMGGKQQRRRNPQEGVYNALQKDKMAEAYSEIGTKGERRRGKGHDGLYQGLSTATKDTYDALHMQTLAPR
